Measurements reported in a protein production outcome set (Wang et al. 2014).

Assay: label from the status in PepcDB records

Row | Sequence | protein production
1 | MSRNKGVQYLSSSEHSLKDYLPILSMAGLILIVQVLALLLSMPMEINDMQAFEDPTQVSNSIYYIVMILVFTLFVLIAIKKNMKWIISLLIYLAIVSTLYYVFFALFTLIPALAGLENIASLLLSIGLTVLLYKYPEWYVIDLLGVCIAGGVSALIGISLSIIPVVVLLILLAVYDAISVYKTKHMIAMAEGVMDLKLPILFIIPKHLNYSFITEGFKEGEKREAFFMGLGDAVMPTLLVVSANVFLENGGLSYPVLGAMLGTLVGHIFLSILVMRGKPQAGLPFLNSGAIIGFFIGVLFSGASIL | failed
2 | MSANSHFHSTHESHYQCAVCSSIDANPNSLAVNYQCLADSSVVGEFHVLPRHQGYTDLLHGGIASSLLDGAMTHCLLFRDIQALTAQLDVRYHAPIELDEHVTITAHCEGERRGIYQLVAQLLVNNEVRVTAKGKFIRPKEA | failed
3 | MGAGQTPHPQLIWPALLKQQGCNELLPLRTNDDWQRFCADSKHLLQYGDKLVDSNFHCFVLEEDAHWHPAAPLPPEGLNDLIRAHCATLGHCCTSKMHLHSVMDAIDFLNALEG | not failed
4 | MARKNQKAPWEPEEEIIWVSKSEMKRDMEELQKLGEELVGLKPAVLEKFPLSEDLREAIADAQRFKNEARRRQLQRIGKLMRYEDPEPIQAALDKVRNKHSQATAALHKLEMLRDRVVEEGDKAIDDVMELYPEADRQRLRQLARQAAKEKKAGKPAKSYREIFQILKALNEEE | not failed
5 | MAKKVAVLAVNPVNGCGLFQYLEAFFENGISYKVFAVSDTKEIKTNSGMVLIVDDVIANLKGHEDEFDALVFSCGDAVPVFQQYANQPYNVDLMEVIKTFGEKGKMMIGHCAGAMMFDFTGITKGKKVAVHPLAKPAIQNGIATDEKSEIDGNFFTAQDENTIWTMLPKVIEALK | not failed
6 | MGGSFYPCLSVSKRAIGKNTAYSTLYYLQYTIKKASFSNVIYTSENNNIFRVSLLTFSFFYFTRTVKNSHMPTTTLEQQRTRQGVLFALGAYTIWGIAPIYFKTISEVSPLEILSHRVIWSFFFLAALLSFSKGWATVINTLKDKKKMTYLITTSVLIGANWLIFIWAVNAGHMLDASLGYYINPLLNVVLGMIFLGERLRRLQWVAVLFASAGVLIQLITFGSIPVVAIALACSFGFYGLLRKKVAMDAQTGLFIETLVMLPLTLIYLLFIADSATSNFSENTLNLNLLLIAAGIITTVPLLCFTGAATRLKLSTLGFFQYIGPSLMFLLAVGLYGEEFSADKAITFGFIWGALVIFTTDAFMARNKKNK | failed
7 | MIMASSAAASISMITLRNLSRNHQSHQSTFLGFSRSFHNQRISSNSPGLSTRARSTTSSTGGFFRTICSSSSNDYSRPTKIQELNVYEFNEGDRNSPAVLKLGKKPDQLCLGDLVPFTNKLYTGDLTKRIGITAGLCVLIQHVPEKKGDRFEASYSFYFGDYGHISVQGPYLTYEDTFLAITGGSGVFEGAYGQVKLRQLVYPTKLFYTFYLKGVAADLPVELTGKHVEPSKEVKPAAEAQATQPGATIANFTN | failed
8 | MELDGKAPSHRNLNVQTWSTAEGAKVLFVEARELPMFDLRLIFAAGSSQDGNAPGVALLTNAMLNEGVAGKDVGAIAQGFEGLGADFGNGAYKDMAVASLRSLSAVDKREPALKLFAEVVGKPTFPADSLARIKNQMLAGFEYQKQNPGKLASLELMKRLYGTHPYAHASDGDAKSIPPITLAQLKAFHAKAYAAGNVVIALVGDLSRSDAEAIAAQVSAALPKGPALAKIEQPAEPKASIGHIEFPSSQTSLMLAQLGIDRDDPDYAAVSLGNQILGGGGFGTRLMSEVREKRGLTYGVYSGFTPMQARGPFMINLQTRAEMSEGTLKLVQDVFAEYLKNGPTQKELDDAKRELAGSFPLSTASNADIVGQLGAMGFYNLPLSYLEDFMRQSQELTVEQVKAAMNKHLNVDKMVIVSAGPTVAQKPLEHHHHHH | not failed
9 | MVSDWLLLAPPAAFITAALALFVVDAISSDETSGWLLSGVTTAGGLAAAAIAGVLLLSETAAGGVELFGGQLVVDGMSLLFTFIFGSVTALVAVASLDYIRDLPHKAEYYLLISLAATGMSLMASANSLVVVFISLELASLPSYALVAYLKNNRGSVEAGLKYFLIGALSSGIMLYGISLIYATTGSFLLGDIAASVGEAASTHPGVFGVGLLMVIGGFAFKTASVPFHFWAPDAYEGAPAPVAAFLSSASKAAGFVIAFRVLLVGFPIQEVAATVDWVLLFQILAVVTMTVGNFAAATQSNVKRMLAYSSIGHAGYVLIGLAALTNVGGPTAEATVLGASMLHLLVYGFMNTGAFLFVAMVEHWDVGRTFEDYNGLAREAPLACVAMTIFLFSLAGLPVGGGFLSKYYLVVGAVGTGVWWLAVVLAINSALSLYYYSRVVKAMWIESPAESLTIERYPTALYAAVMAAAAVTVLLLPGLFVFDGAAFDAAAALL | failed
10 | MTNTAAPATVSAGWADALLASFGQAGYAKAEPAILQPAEPFLDLSGEDIRKSLYLTTDAGGEELCLRPDLTIPVARDYLASSSAGKPAGFCYLGPVFRQRGGKRSEFLQAGIESFGRKDRAAADAEMLALALGATAAFGVAELDIRTGDVALFTALIDALDLYPVWRRRLIKDFNRKSDLAQDLEQLTLATATPRNEYEGVLAALAGSDRKAALALVTDLMSIAGASNVGGRSVAEIADRFLEQSTLKGGALPRDALDKIKRFLAISGSPGDALLQLRALAADAKLDIVAAIDEFEARIGFMAARGIDLSATRFSTSFGRGVDYYTGFEFELHRKDNGDEPLVAGGRYDGLLSQLGATAPIAAVGFSVWIEAFTDLAHPANSSAGSAT | failed
11 | MPSLSVRGSLLLVCALAVTGCASLQSQDQINYAHCRMVGQASKAEKFDVVLQEADLCLEKNQLSQPMQSLVYWLKSDAYASFKRYPEAIAAKEKSIELGPKPDARAVLDLSRLYREAGNPQKALELVQSNLDNNLGEAGKGSGFNMPTYYHLGQTLYDLGRYREAAEAYSTGLLKQPDYAWAFYHRGLAYDKLGQTDDARADFAQFAKLVNQKYVEPQHQAKLAEYKIKLP | failed
12 | MKGSLIIVGFFVLGALCGVYHLIPYDFTQSKLSFYALCALMFSVGVSVGNDPQTLRNFRSLNPRLIFLPVMTILGTLAGCAVVSLFLS | failed
13 | MTWLIISGLVVGALLGFVMQRTRFCLAGGFRDMYIQKSNKMFYALLIAISVQSIGLLLLTSTRLVEIPESTYPIIGTVIGSFIFGLGIIMAGGCATGTWYRAGEGLIGSWMALIAYAFTSAATKFGLLLPLMNGLNKPTNVNTSMSQTTGIPTWVFVIVLIVITLFFVVKTLRKPKFAVPKLKQKFTGIRHYLFEKKYHPFVAAIAVGLIALLAWPVSESTGRMYGLGITTPSANLVQFFVTGDLKLLDWGVFLVLGIFFGSYIAAKGAKEFKWRLPDKKTIRNSIIGGVLMGFGASVAGGCSIGNGLVETATMSWKGWIALASMILGAWTMSYFVFIRPMKKAQSQTSNTKVSSQTQTS | failed
14 | MAGRQPGGAAMKALLHGIAEGNGRTLRNLLGLLIFIGGGYLLGRHALLLAELNLPAPIVLALKGGLLCAFGTALGAMPVLVVKTMPARLSDALLGFGAGVMLSATAFSLIMPALSAAGDLGYSKFGAGFLVSFGLAVGVMGLFILGRLMPDVHPGCEGAPLSGGIPPRILLFVTAIVLHNIPEGMAVGVSAGAGLDEANGLALGIALQDVPEGLVVALVLAGVGMSRFKAMLVGAASGLVEPLFAVLCAWLVGLSALLLPWGLAAAAGAMLFVVTHEIIPESHRQGHAAEATLGLVFGFCLMMVLDTALG | failed
15 | MRISFVGSGKVATHLAKAFAQQHQIIQIMSRNLPHAEKLAHQVGACAIDNYSQIEQEIDLLVIAVSDQSISSVIQAVHVFVPEQLIVHTSGSTDVKILSDIHSNAGVFYPLQTFSFERDIHWSDTPLLIEAEQANSLSILNALANSLTKRVYHYSSTQRLSLHLAAVFACNFSNYCYDMAKQTVDQAQVDFSLLYPLILETAKKATQHDPVQVQTGPAVRHDHNIVELHQNLLLKANRPDLKDIYQRLSQAIIARHHTQP | failed
16 | MSKSTKVDLVFLFFTAIWGLSFPLTKNVLGYTSIFAFLSLRFTSAAVILIIIFWKKLKLINTKIILYGSLIGLMFFGSLAFQVASLRFTTSSNSSFISALSVVIVPLVSAGYYKKKIDFSCVLGVLFAVVGLFFISGGVNFKLNIGDLFSFLCAICITFQIIFIDIFCSKCDSALLSLIQVVFCAIFYNIVLFIIGTKPIVFNTQLTVSIFITGILGTAVAYTGIVFLEKFTSPTHTALIFCAEPVFATIFAMFIPNNNGSCESITINTFIGCGVILLSMVISELKIGNNIPQKIIKL | failed
17 | MILEDLNQLPAAEASHTFMQCSASAWVKKMVTARPFSSELAIKKAADDAWQGLTEQDYFEAFEGHPKIGDVSSLRAKYANTKELAGNEQGLVKEANDDVLEVLSQGNSDYEKKFGFIFIVCATGKSAKQMSDLLQARLPNNKTQELVNAAEEQRKIFQLRIDKALAEGLEHHHHHH | failed
18 | KLRQWLIDQIDSGKYPGLVWENEEKSIFRIPWKHAGKQDYNREEDAALFKAWALFKGKFREGIDKPDPPTWKTRLRCALNKSNDFEELVERSQLDISDPYKVYRIVPE | not failed
19 | MAEELDDLTKFEAKGTSHHLPVGWLALFWGLIVFGAYYYWAYSPALGGWSQAKDLETGGASSGANLLWTIAFTAVPALVAIWMGLTQKKKAR | failed
20 | MKEVRIVFQPGEISVPVAAGTTIMEAMNRSGLGEDFPCGGRGKCGKCRVKVREGREDFTAIDEDHLTAQELAEGVRLACATKINRDMMVEMQSPKKLQHHILIDSAARAFHIHPHLVKVFAEIAQPSLSEHKSDWQRLQESLAGLGCSVHDLQAPLSVLRRLPDTLRESTNRVTTIVYGSQVLGVEQGDTTGTLLGMAFDIGTTTIVGYLLDLNSGRELEVVSTLNPQAQYGGDVISRITFAGKEEKGLDTLHQAVTGAMNRLIGEAVDKAGVSRTQLYGISVAANTTMHHLFLGITPRSIGMSPYVSAINQGLVVAPGELGLEINKAGRVFVLPNIAGFVGADTTAVLLASDLEKSDHVTLILDIGTNGEIVLGSKNRMVACSAAAGPAFEGAQITSGMRGADGAIDHISFDHGLSYTVIGNGRPIGICGSALLDGVAGFVELGMINKRGKFLEPEKLTHPSALKLKDRLIKYEETWAFQLVEAGQTRHGRPILITQNDIRELQLAKGAIAAGVRILQEAMGIECEDIKEVLLAGAFGNYLNPHSACVIGLIPRELESRIKTIGNAAGNGAKIALLSAQEFSRAKDLAGGVSFVELGSYPGFNTIFAQNTYFKLDLEHHHHHH | not failed
21 | MINQATSPAAPISLTTKGLRWANLAFMLYLLLLAVAMVGSGFKWATGDQAKVLFEFASHPIAGLMIGLVATALIQSSSTVTSIIVGLVAGGLPVETAIPMVMGANIGTTVTNTLVSLGHMRCKEEFRRAFASATIHDFFNLLAVLIFLPLEMMFGILEKVSHWLVSPLLATGDMSMKGFDFIKPITKPVITGLETQLSVLGNTFGGVALIVLGIATIFVAITVMGKLMKSLMVGRAREILQNAIGRGPLHGIASGTVVTVLVQSSSTTTSLMVPLVGSGVLKVREIYPFTLGANIGTCITALLAATAVSGEFAVFALQIALVHLSFNLMATVLIYGIPFLRELPIKGAELISTWACKSKMVVVSYLLGVFVVIPGSILALTA | failed
22 | MEAATWILFTLGVSLILAKIGDSLVERFELPGVLGELLVGIILGNLVYFGVISSEYLPITAGSSEVIDFMAKLGVVFLLFLGALDTDLNLIKRTGITAVVSTILGVFVPLILGYLGLRWLGYDNKEAFAGGVLLTATSIGLTVRVMMDLGVLRSEVGAASLSASVIDDFLGIALIIFAVGSGSLLGLGIKIIIFFLITGVVGWYFIDHYLKFAERLGVEKGVLGFVLGMMLIFSALAEGWFAAAIEGAFMMGLILSKTAEGKRLLEEVRSIGYGFLIPIFFVHTGAMLNFKVFENLEAIKLAVVLSVIAIVGKVAGRGFGAWITAWGRGKDFLFTRENFRMSFQMGIGSIPRTEVALVALMVAIHGGAISPDDAPKFIAATLIFITISVLITPPLLKWAFREEILAQKKLLLENRKEKIESKKRGTR | failed
